Biological target: T1, HLA-A0201 on the surface of T2 cells (human)
T1 construct: MHC class I molecule on T2 cells; surface HLA-A*02:01 was read with an anti-HLA-A*02:01 FITC monoclonal antibody after overnight loading with peptide
Test: T2 cell peptide loading, flow cytometry with anti-HLA-A*02:01 FITC antibody, peptide 100 uM
Protocol: After centrifugation at 200 g for 5 minutes for cell collection, the collected cells were washed with phosphate buffer saline (PBS) buffer twice, before incubated with anti-HLA-A*02:01 FITC monoclonal antibody at 4° C. for 30 minutes. The mean fluorescence intensity of cells was then detected and analyzed by the flow cytometry (BD FACSJazz™)) and its software.

Row | Binder | FI (fluorescence index) | Mean fluorescence intensity
1 | PLAFLIFNI (Made by solid phase synthesis) [wild-type polypeptide PLAFLIFNI (SEQ ID NO: 7)] | 1.63 | 650
2 | TLAFLIFNI (Made by solid phase synthesis, purity >90% by HPLC) [mutant polypeptide TLAFLIFNI (SEQ ID NO: 1)] | 1.6 | 643
3 | TLAFLIFNV (Made by solid phase synthesis) [mutant polypeptide's variant TLAFLIFNV (SEQ ID NO: 3)] | 1.51 | 620
4 | TLAFLIFNL (Made by solid phase synthesis) [mutant polypeptide's variant TLAFLIFNL (SEQ ID NO: 4)] | 1.49 | 615

The next lines start with the values.

Row | FI (fluorescence index) | Mean fluorescence intensity | Binder
5 | 1.74 | 677 | TMAFLIFNV (Made by solid phase synthesis) [mutant polypeptide's variant TMAFLIFNV (SEQ ID NO: 6)]
6 | 1.79 | 690 | TMAFLIFNL (Made by solid phase synthesis) [mutant polypeptide's variant TMAFLIFNL (SEQ ID NO: 5)]
7 | 1.67 | 660 | TMAFLIFNI (Made by solid phase synthesis) [mutant polypeptide's variant TMAFLIFNI (SEQ ID NO: 2)]
